Reference: patent publication US20160060347A1 (MorphoSys, published 2016)
Residue numbers refer to the chain shown, from its start.

T1: human CXCR2 (human, UniProt P25025 1-360)
T1 construct: Expressed on Flp-In CHO cells (FACS, Fab-ZAP, ADCC, CDC) or on bought PathHunter CHO cells (beta-arrestin assay); the construct in the PathHunter cells is not described; also called chemokine receptor CXCR2; CXCR2 CHO Flp-In cells
T1 sequence: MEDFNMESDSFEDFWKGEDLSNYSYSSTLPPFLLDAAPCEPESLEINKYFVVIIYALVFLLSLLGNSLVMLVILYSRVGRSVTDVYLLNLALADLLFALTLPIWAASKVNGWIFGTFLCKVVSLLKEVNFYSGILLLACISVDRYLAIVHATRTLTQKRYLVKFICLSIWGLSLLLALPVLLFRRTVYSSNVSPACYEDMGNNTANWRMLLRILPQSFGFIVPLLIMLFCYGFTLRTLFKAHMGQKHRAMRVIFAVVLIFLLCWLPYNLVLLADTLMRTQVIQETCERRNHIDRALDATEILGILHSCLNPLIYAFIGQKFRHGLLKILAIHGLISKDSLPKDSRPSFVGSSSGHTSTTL

B1: CX2-Mab #15 (Fab, V domains shown)
VH: EVQLLESGGGLVQPGGSLRLSCAASGFTFSRYWMSWVRQAPGKGLEWVSVISYSGSETYYADSVKGRFTISRDNSKNTLYLQMNSLRAEDTAVYYCARGRAYGYFDPWGQGTLVTVSS
VL: DIVLTQPPSVSGAPGQRVTISCSGSSSNIGKKTVSWYQQLPGTAPKLLIYRNNQRPSGVPDRFSGSKSGTSASLAITGLQAEDEADYYCGSTTSSHLYVFGGGTKLTVLG
B2: CX2-Mab #16 (Fab, V domains shown)
VH: B1 VH
VL: B1 VL with T93G, S94Y, S95R, H96G
B3: CX2-Mab #10 (Fab, V domains shown)
VH: B1 VH
VL: DIVLTQPPSVSGAPGQRVTISCSGSSSNIGKKTVSWYQQLPGTAPKLLIYRNNQRPSGVPDRFSGSKSGTSASLAITGLQAEDEADYYCSSTTSSSRSVVFGGGTKLTVLG
B4: CX2-Mab #12 (Fab, V domains shown)
VH: B1 VH with E1Q
VL: B3 VL with S90Q, T93D, S95T, S96H, S98M, V99A
B5: CX2-Mab #11 (Fab, V domains shown)
VH: QVQLVQSGAEVKKPGSSVKVSCKASGGTFTDYAISWVRQAPGQGLEWMGGIIPIFGTANYAQKFQGRVTITADESTSTAYMELSSLRSEDTAVYYCARHSYSFDYWGQGTLVTVSS
VL: DIELTQPPSVSVSPGQTASITCSGDNLRKKYAYWYQQKPGQAPVLVIGSKSNRPSGIPERFSGSNSGNTATLTISGTQAEDEADYYCQSYDSGRVVFGGGTKLTVLG
B6: CX2-Mab #14 (Fab, V domains shown)
VH: QVQLQQSGPGLVKPSQTLSLTCAISGDSVSSNSAAWNWIRQSPSRGLEWLGRIYYRSKWYNDYAVSVKSRITINPDTSKNQFSLQLNSVTPEDTAVYYCARDVPYYSDYSHYVYYYGAWFDVWGQGTLVTVSS
VL: DIELTQPPSVSVSPGQTASITCSGDSIPYNYAHWYQQKPGQAPVLVIYDDSDRPSGIPERFSGSNSGNTATLTISGTQAEDEADYYCGAYDKKWVVFGGGTKLTVLG
B7: CX2-Mab #17 (Fab, V domains shown)
VH: B1 VH with R31S, W33S, V50Y, Y53S, S54A, E57N, P107Y
VL: DIVLTQPPSVSGAPGQRVTISCSGSSSNIGSNTVYWYQQLPGTAPKLLISSNTKRPSGVPDRFSGSKSGTSASLAITGLQAEDEADYYCQVTDFRLHHVVFGGGTKLTVLG
B8: CX2-Mab #18 (Fab, V domains shown)
VH: EVQLLESGGGLVQPGGSLRLSCAASGFTFSRYAMSWVRQAPGKGLEWVSVISSDGGTTYYADSVKGRFTISRDNSKNTLYLQMNSLRAEDTAVYYCARIFSYALDYWGQGTLVTVSS
VL: DIVLTQPPSVSGAPGQRVTISCSGSSSNIGSYYVNWYQQLPGTAPKLLIYRNSKRPSGVPDRFSGSKSGTSASLAITGLQAEDEADYYCSSYDAHSDSVVFGGGTKLTVLG
B9: CX2-Mab #19 (Fab, V domains shown)
VH: EVQLVQSGAEVKKPGESLKISCKGSGYSFTSYWISWVRQMPGKGLEWMGIIDPANSYTRYSPSFQGQVTISADKSISTAYLQWSSLKASDTAMYYCARVERRPRYYGSNYYGMDVWGQGTLVTVSS
VL: B8 VL with Y32N, R51G, K54N, S91V, Y92R, A94S, H95E, S96G, D97R, S98Y
B10: CX2-Mab #3.2 (antibody, IgG1, V domains shown)
VH: QVQLLESGGGLVQPGGSLRLSCAASGFTFSSYAMSWVRQAPGKGLEWVSLISQGGLTYYADSVKGRFTISRDNSKNTLYLQMNSLRAEDTAVYYCARGRVGYAFDYWGQGTLVTVSS
VL: DIVLTQPPSVSGAPGQRVTISCSGSSSNIGVNYVNWYQQLPGTAPKLLIYSNNQRPSGVPDRFSGSKSGTSASLAITGLQAEDEADYYCQSRASGFYSVVFGGGTKLTVLG
B11: CX2-Mab #4.1 (antibody, IgG1, V domains shown)
VH: QVQLVQSGAEVKKPGSSVKVSCKASGGTFSSYAISWVRQAPGQGLEWMGHIPPNEGTPWYAQKFQGRVTITADESTSTAYMELSSLRSEDTAVYYCARGYGFDVWGQGTLVTVSS
VL: DIVLTQPPSVSGAPGQRVTISCSGSSSNIGVNIVNWYQQLPGTAPKLLIYSTSNRPSGVPDRFSGSKSGTSASLAITGLQAEDEADYYCATRDGISKSVVFGGGTKLTVLG
B12: CX2-Mab #4.2 (antibody, IgG1, V domains shown)
VH: QVQLLESGGGLVQPGGSLRLSCAASGFTFSSNGMSWVRQAPGKGLEWVSAISSSGSKTYYADSVKGRFTISRDNSKNTLYLQMNSLRAEDTAVYYCARGYGFDVWGQGTLVTVSS
VL: B11 VL with A90G, R92Y, G94V, I95Q, K97H, S98Q, V99M
B13: CX2-Mab #1.1 (antibody, IgG1, V domains shown)
VH: QVQLVQSGAEVKKPGSSVKVSCKASGGTFSSYAISWVRQAPGQGLEWMGGIIPIVGEAKYAQKFQGRVTITADESTSTAYMELSSLRSEDTAVYYCARDSSGYDGYYAFAYWGQGTQVTVSS
VL: DIVLTQPPSVSGAPGQRGTISCSGSSSNIGSSSVNWYQQLPGTAPKLLIYRNNQRPSGVPDRFSGSKSGTSASLAITGLQAEDEADYYCGSTDMSTNSIVFGGGTKLTVLG
B14: CX2-Mab #1.6 (antibody, IgG1, V domains shown)
VH: B13 VH
VL: B13 VL with G90A, T92R, M94H, S95F, T96S, N97H, S98G, I99L
B15: CX2-Mab #1.3 (antibody, IgG1, V domains shown)
VH: B13 VH
VL: DIVLTQPPSVSGAPGQRGTISCSGSSSNIGSSSVNWYQQLPGTAPKLLIYRNNQRPSGVPDRFSGSKSGTSASLAITGLQAEDEADYYCAVTTKPQGIVFGGGTKLTVLG
B16: CX2-Mab #1.4 (antibody, IgG1, V domains shown)
VH: B13 VH
VL: B15 VL with V91S, T93D, K94I, P95S, Q96R, G97V

target: T1, human CXCR2; assay: FACS, CXCR2 CHO Flp-In cells, Fab
Protocol: (§1) Human CXCR2-expressing Flp-In™ CHO cells were harvested at ˜80% confluence washed once with PBS (Gibco, Cat #14190-094) and detached using Versene (Invitrogen, Cat #15040-033). Subsequently, cells were counted and centrifuged at 250×g for 5 min at 4° C. Afterwards, cells were diluted in Superblock (Thermo Fisher Perbio Science, Cat #37515) to a cell concentration of 2E+05-1E+06/mL and 100 μL/well were transferred to 96-well microtiter plate (Nunc, Cat#163320). Cells were once centrifuged, supernatant discarded and antibodies added at 1 μg/mL (unless stated otherwise), incubated for 1 h at 4° C. and washed twice with FACS buffer (PBS/3% FCS/0.02% NaN3). Binding of anti-CXCR2 antibodies was detected by incubation of Phycoerythrin-conjugated anti-human IgG (Dianova, Cat #109-116-097) for 1 h at 4° C. Samples were subsequently measured using FACS Array (Becton Dickinson).

Binding result, binds:
B1
B2
B3
B4
B5
B6
B7
B8
B9

target: T2, N-terminal peptide aa1-48, BSA-coupled (human; bovine, coupled to carrier protein BSA; C-terminal cysteine introduced to enable coupling); assay: ELISA, coated peptide-BSA, Fab
T2 construct: also called CXCR2 aa1-48 BSA
Protocol: (§2) 384-well Maxisorp plates (Nunc; Cat. #460518) were coated with respective CXCR2 and control peptides coupled either to BSA or Transferrin (TRF) at 1-5 μg/mL and incubated o/n at 4° C. […] After three washing steps, antibodies were added at 5-10 μg/mL and titrated in some experiments. Antibodies were incubated 1 h at room temperature and plates were subsequently washed. Binding of anti-CXCR2 antibodies was detected by using alkaline phosphatase-conjugated anti-human IgG, (Dianova, Cat #109-055-097). AttoPhos fluorescence substrate (Roche, Cat #1484281) was added according to instructions of the manufacturer and fluorescence was measured (excitation at 430 nm, emission at 535 nm) using a microplate reader.

Binding result, binds:
B1
B2
B3
B4
B5
B6
B7
B8
B9

target: T3, ECL3 peptide aa273-295, BSA-coupled (human; bovine, coupled to carrier protein BSA; C-terminal cysteine introduced to enable coupling); assay: ELISA, coated peptide-BSA, Fab
T3 construct: also called CXCR2 aa273-295 BSA; peptides representing the extracellular domain 3
T3 sequence (peptide, as listed by the source limits assumed, chain 1 of 2): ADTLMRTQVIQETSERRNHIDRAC
T3 sequence (P02769 25-607 limits assumed, chain 2 of 2): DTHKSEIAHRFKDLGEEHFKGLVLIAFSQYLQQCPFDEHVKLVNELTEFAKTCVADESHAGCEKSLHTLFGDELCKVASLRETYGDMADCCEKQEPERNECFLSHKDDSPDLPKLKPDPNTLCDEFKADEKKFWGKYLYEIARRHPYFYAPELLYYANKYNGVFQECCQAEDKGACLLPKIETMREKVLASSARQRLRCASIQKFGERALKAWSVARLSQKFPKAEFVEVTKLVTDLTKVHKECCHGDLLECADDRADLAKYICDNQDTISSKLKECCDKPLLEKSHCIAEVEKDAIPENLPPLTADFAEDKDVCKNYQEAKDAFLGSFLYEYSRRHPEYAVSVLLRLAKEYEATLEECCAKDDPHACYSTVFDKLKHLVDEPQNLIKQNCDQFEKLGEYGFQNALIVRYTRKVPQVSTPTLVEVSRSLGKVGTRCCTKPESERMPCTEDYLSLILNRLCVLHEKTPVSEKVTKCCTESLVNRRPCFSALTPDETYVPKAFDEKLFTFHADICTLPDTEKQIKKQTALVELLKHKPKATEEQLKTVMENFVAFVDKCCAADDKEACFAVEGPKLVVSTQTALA
Protocol: as §2

Binding result, binds:
B1
B2
B3
B4
B7
B8
B9

target: T4, hu_CXCR2_N-term (1-17)-BSA (human; bovine, coupled to carrier protein BSA; C-terminal cysteine introduced to enable coupling); assay: ELISA, coated peptide-BSA, Fab
T4 construct: Synthetic linear peptide chemically coupled to the carrier; also called CXCR2_aa1-17_BSA; CXCR2 aa1-17 BSA
T4 sequence (P02769 25-607 limits assumed): as the sequence (P02769 25-607 limits assumed, chain 2 of 2) above
Protocol: as §2

Binding result, binds:
B1
B2
B3
B4
B7
B8
B9

target: T1, human CXCR2; assay: FACS, CXCR2 CHO Flp-In cells, IgG1
Protocol: as §1

Binding result, binds:
B10
B11
B12
B13
B14
B15
B16

target: T2, N-terminal peptide aa1-48, BSA-coupled; assay: ELISA, coated peptide-BSA, IgG1
Protocol: as §2
Target sequence in this assay (P02769 25-607 limits assumed): as the sequence (P02769 25-607 limits assumed, chain 2 of 2) above

Binding result, binds:
B10
B11
B12
B13
B14
B15
B16

target: T4, hu_CXCR2_N-term (1-17)-BSA; assay: ELISA, coated peptide-BSA, IgG1
Protocol: as §2

Binding result, binds:
B10
B11
B12
B13
B14
B15
B16
